Here are results for two substances from US20100092465A1, “TREATMENT OF GRAFT-VERSUS-HOST DISEASE” (priority 2006, published 2010).

In one assay the target is T1, BHK-mIL-27R cells (Mus musculus, UniProt O70394).
T1 construct: expressed in transfected cells; host or cells: BHK cells
T1 sequence (O70394 25-623): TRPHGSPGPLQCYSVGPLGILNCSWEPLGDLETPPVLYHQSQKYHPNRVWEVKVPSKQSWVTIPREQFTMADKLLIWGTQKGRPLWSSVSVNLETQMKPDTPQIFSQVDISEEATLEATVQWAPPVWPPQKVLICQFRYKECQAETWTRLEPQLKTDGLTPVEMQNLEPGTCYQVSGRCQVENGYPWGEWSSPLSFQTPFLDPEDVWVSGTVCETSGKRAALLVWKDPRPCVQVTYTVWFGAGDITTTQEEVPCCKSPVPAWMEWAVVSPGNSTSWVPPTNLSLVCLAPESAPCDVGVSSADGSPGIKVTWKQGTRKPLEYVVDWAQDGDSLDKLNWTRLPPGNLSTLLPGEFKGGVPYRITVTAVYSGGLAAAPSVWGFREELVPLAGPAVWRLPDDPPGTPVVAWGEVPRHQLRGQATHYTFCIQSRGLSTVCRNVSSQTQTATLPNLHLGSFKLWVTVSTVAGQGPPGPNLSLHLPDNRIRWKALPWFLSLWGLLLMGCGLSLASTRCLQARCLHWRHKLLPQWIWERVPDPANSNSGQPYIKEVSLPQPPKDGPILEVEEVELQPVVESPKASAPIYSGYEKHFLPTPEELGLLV
T1 sequence (Q00560 23-917 partner): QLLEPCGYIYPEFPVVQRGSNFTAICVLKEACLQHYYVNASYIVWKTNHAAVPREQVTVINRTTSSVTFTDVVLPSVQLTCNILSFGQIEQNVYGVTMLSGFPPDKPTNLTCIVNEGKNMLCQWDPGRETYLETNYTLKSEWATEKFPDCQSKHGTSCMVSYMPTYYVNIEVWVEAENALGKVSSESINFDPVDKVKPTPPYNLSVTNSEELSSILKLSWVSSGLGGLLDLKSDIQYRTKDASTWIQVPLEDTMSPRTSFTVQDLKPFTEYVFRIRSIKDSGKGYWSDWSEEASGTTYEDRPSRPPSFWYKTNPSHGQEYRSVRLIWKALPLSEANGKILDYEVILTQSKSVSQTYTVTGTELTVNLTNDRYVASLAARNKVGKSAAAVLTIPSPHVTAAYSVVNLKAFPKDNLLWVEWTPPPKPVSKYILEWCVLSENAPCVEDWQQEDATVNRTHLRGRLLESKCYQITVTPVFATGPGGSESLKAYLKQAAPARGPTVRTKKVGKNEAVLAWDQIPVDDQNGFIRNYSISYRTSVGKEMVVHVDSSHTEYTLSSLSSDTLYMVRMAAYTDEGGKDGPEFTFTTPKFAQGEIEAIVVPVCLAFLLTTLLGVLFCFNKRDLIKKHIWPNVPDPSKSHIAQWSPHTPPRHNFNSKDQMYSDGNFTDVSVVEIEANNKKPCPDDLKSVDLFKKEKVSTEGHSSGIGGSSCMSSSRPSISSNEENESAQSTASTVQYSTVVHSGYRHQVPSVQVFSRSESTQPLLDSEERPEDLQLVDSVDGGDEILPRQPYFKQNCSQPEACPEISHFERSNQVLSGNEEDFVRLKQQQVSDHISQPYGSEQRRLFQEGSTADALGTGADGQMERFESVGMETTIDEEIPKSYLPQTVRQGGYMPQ
The assay is described as follows: Competition binding against 125I-labeled A1426F. To be noted: 0.1 nM label; competitor 50 nM to 7.6 pM; 4 hours on ice. The method, then:
For competition binding studies, ^125I-labeled A1426F (0.1 nM) was added to preparations of unlabeled A1426F, mouse IL-27 p28 with a C-terminal polyhistidine tag (A1406F), or an unrelated control protein titered from 50 nM to 7.6 pM in 1:3 serial dilutions. These preparations were incubated with BHK-mIL-27R cells for 4 hours on ice. The cells were then washed three times with ice-cold binding buffer, then solublized with 1N NaOH. These lysates were then checked for bound A1426F by checking for radiation with a gamma counter.

The target in assay [1] is T2, huIL-27 (Homo sapiens, UniProt Q14213+Q8NEV9).
T2 sequence (Q14213 21-229): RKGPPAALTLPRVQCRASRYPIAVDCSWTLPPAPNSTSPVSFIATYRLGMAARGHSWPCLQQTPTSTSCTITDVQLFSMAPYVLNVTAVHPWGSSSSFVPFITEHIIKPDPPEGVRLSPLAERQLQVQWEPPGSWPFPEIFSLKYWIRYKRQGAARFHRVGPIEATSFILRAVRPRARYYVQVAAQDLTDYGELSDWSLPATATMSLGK
T2 sequence (Q8NEV9 29-243): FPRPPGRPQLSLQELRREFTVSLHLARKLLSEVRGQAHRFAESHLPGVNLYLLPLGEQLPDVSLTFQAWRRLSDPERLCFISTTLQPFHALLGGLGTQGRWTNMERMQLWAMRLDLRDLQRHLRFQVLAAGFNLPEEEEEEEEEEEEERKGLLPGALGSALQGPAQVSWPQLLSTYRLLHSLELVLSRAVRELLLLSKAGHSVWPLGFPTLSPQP
The assay is described as follows: Phospho-STAT3 neutralization assay, total human PBMCs, huIL-27. Format: cell-based. The settings on record: total human PBMCs; phospho-STAT3; read-out: EC90 concentration. The source says:
(§1) Whole mouse spleens were harvested from C57 B1/6 mice and washed two times with 1×PBS before being plated out at 2×10^5 cells/well in assay media (RPMI 1640 plus 10% fetal bovine serum) in 96-well, round-bottom tissue culture plates. Total human PBMC (peripheral blood mononuclear cells) were thawed from a frozen vial collected from a leukapherisis donation and washed two times with 1×PBS before being plated out at 10^6 cells/well in assay media in 96-well, round-bottom tissue culture plates. […] Following pre-incubation, treatments were added to the plates containing the cells and incubated together at 37° C. for 15 minutes.
(§2) Following incubation, cells were washed with ice-cold wash buffer (BIO-PLEX Cell Lysis Kit, BIO-RAD Laboratories, Hercules, Calif.) and put on ice to stop the reaction according to manufacturer's instructions. […]
(§3) Capture beads (BIO-PLEX Phospho-Stat3 Assay, BIO-RAD Laboratories) were combined with 50 μL of 1:1 diluted lysates and added to a 96-well filter plate according to manufacture's instructions (BIO-PLEX Phosphoprotein Detection Kit, BIO-RAD Laboratories). […] After the final wash, beads were resuspended in 125 μL/well of bead suspension buffer, shaken for 30 seconds, and read on an array reader (BIO-PLEX, BIO-RAD Laboratories) according to the manufacture's instructions. Data were analyzed using analytical softward (BIO-PLEX MANAGER 3.0, BIO-RAD Laboratories). […]

For assay [2], the target named is T2, huIL-27. The assay is described as follows: Phospho-STAT3 neutralization assay, mouse spleens, huIL-27. Type of assay: cell-based. To be noted: mouse spleens; phospho-STAT3; read-out: EC90 concentration.
Text: as §1, §2, §3

Turning to “A1406F: mouse IL-27 p28 with a C-terminal polyhistidine tag”, the “competition with ^125I-labeled A1426F for binding” value in the assay with BHK-mIL-27R cells is on record as “unable to compete”.
Regarding “huIL-27: human IL-27 ligand [reference compound]”, the EC90 in the assay with huIL-27 [1] and with huIL-27 [2] was 2 nM throughout.
